Reference: PMC5892705

Molecular target: human vasopressin V2 receptor (human), P30518

Binder: UYIQNUPLG (modifications not checked) [[Se-Se]-OT-OH]
- cAMP production, EC50: 109 nM
